Experimental data: publication PMC10126545 (2023)
Where “and” joins values, the source holds several entries; their conditions need not be identical. Equal entries are not always repeated.

Columns and labels:
Assay in all cases: BLI
[1] = molecular target: T1, COBRA P1 HA wild type, CHO expressed, for binding assays (glycosylation at Asn127)
[2] = molecular target: T1, COBRA P1 HA wild type, CHO expressed, …; remark: listed apart in the source
[3] = molecular target: COBRA P1 HA N127D mutant, CHO expressed, for binding assays

B1: Fab 1F8 (recombinant Fab of the P1-elicited mouse monoclonal antibody 1F8) (Fab, V domains shown)
VH: QVQLQQSGAELMKPGASVKISCKATGYTFSSYWIEWVKQRPGHGLEWIGEILPGSGRTNYDERFKGKATFTADTSSNTAYMQLSSLTSEDSAVYYCARPRIYGMDYWGQGTSVTVSS
VL: DIVLTQSPASLAVSLGQRATISCKASQSVDFDGDTYMSWYQQKPGQPPKLLIYAASKLESGIPARFSGSGSGTDFTLNIHPVEEEDAATYFCQQSNEDPWTFGGGTKLEIK
Kd [1]: 2.56 nM and 3.35 nM | koff [2]: 0.000813 s⁻¹ | koff [3]: 0.000855 s⁻¹
